Experimental data reported in patent US9206432B2, “Sulfonylurea-responsive repressor proteins” (priority 2008, dated 2015).

B1: L6-5G06 (protein)
chain: MGSRLDKSKVINSALELLNEVGIEGLTTRKLAQKLGVEQPTLYWHVKNKRALLDALAIEMMDRHQTHYCPLEGESWQDFLRNNAKSMRCALLSHRDGAKVCLGTRWTEQQYETAENQLAFLCQQGFSLENALYAVSAVRVFTLGCVLFDQELQVAKEERETPTTASMPPLLRQGWELKDHQGAEPAFLFGLELIICGLEKQLKCESGS
modifications: Sulfonylurea responsive repressor L6-5G06
B2: L6-5H06 (protein)
chain: MGSRLDKSKVINSALELLNEVGIEGLTTRKLAQKLGVEQPTLYWHVKNKRALLDALAIEMMDRHQTHICPLEGESWQDFLRNNAKSMRCALLSHRDGAKVCLGTRWTEKQYETAENMLAFLCQQGFSLENALYAVSAVRVFTLGCVLFDQELQVAKEERETPTTASMPPLVRQAWELKDHQGAEPAFLFGLELIICGLEKQLKCESGS
modifications: Sulfonylurea responsive repressor L6-5H06
B3: L6-5H12 (protein)
chain: MGSRLDKSKVINSALELLNEVGIEGLTTRKLAQKLGVEQPTLYWHVKNKRALLDALAIEMMDRHATHYCPLEGESWQDFLRNNAKSMRCALLSHRDGAKVCLGTRWTEKQYETAENQLAFLCQQGFSLENALYAMSAVRVFTLGCVLFDQELQVAKEERETPTTASMPPLVRQAWELKDHQGAEPAFLFGLELIICGLEKQLKCESGS
modifications: Sulfonylurea responsive repressor L6-5H12
B4: L6-6F07 (protein)
chain: MGSRLDKSKVINSALELLNEVGIEGLTTRKLAQKLGVEQPTLYWHVKNKRALLDALAIEMMDRHATHLCPLEGESWQDFLRNTAKSMRCALLSHRDGAKVCLGTRWTEQQYESAENMLAFLCQQGFSLENALYAMSAVRVFTLGCVLFDQESQVAKEERETPTTASMPPLLRQAWELKDHQGAEPAFLFGLELIICGLEKQLKCESGS
modifications: Sulfonylurea responsive repressor L6-6F07

Tested on: lacZ under control of the tetA promoter (PtetA) in E. coli KM3
Type: cell-based
Details: for 0.2 ppm 48 hr (colony color intensity, induction by chlorsulfuron): 0.2 ppm chlorsulfuron as inducer, 48 hr at 30° C.; for 0.2 ppm 48 hr (colony color intensity, induction by chlorsulfuron) / Control 84 hr (background activity, no inducer): M9 assay plates, ImageJ colony color intensity; for Control 84 hr (background activity, no inducer): 84 hr at 30° C.

Row | Molecule | 0.2 ppm 48 hr/Control 84 hr | 0.2 ppm 48 hr (colony color intensity, induction by chlorsulfuron) | Control 84 hr (background activity, no inducer)
1 | B1 | 4.9 | 34.4 | 7.0
2 | B2 | 2.7 | 13.7 | 5.1
3 | B3 | 4.2 | 23.7 | 5.7
4 | B4 | 2.3 | 11.6 | 5.1
